These results are taken from patent US20220098307A1 (WUHAN YZY BIOPHARMA, published 2022).

Residue numbers refer to the chain shown, from its start.

Sequences and labels used below:
T1: Human BCMA (human, UniProt Q02223 1-54)
T1 sequence: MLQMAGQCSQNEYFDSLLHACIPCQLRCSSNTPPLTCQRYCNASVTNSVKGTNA

B1: BCMA-M2-FES (bispecific antibody, human IgG1, kappa)
chain: QLQLQESGPGLVKPSETLSLTCTVSGGSISSGSYFWGWIRQPPGKGLEWIGSIYYSGITYYNPSLKSRVTISVDTSKNQFSLKLSSVTAADTAVYYCARHDGAVAGLFDYWGQGTLVTVSSASTKGPSVFPLAPSSKSTSGGTAALGCLVKDYFPEPVTVSWNSGALTSGVHTFPAVLQSSGLYSLSSVVTVPSSSLGTQTYICNVNHKPSNTKVDKKVEPKSCDKTHTGGGSAAAQVQLVESGGGVVQPGRSLRLSCAASGFTFSTYAMNWVRQAPGKGLEWVARIRSKYNNYATYYADSVKDRFTISRDDSKNTLYLQMNSLRAEDTAVYYCARHGNFGNSYVSWFAYWGQGTLVTVSSGGGGSGGGGSGGGGSQTVVTQEPSLTVSPGGTVTLTCRSSTGAVTTSNYANWVQQKPGQAPRGLIGGTNKRAPGVPARFSGSLLGGKAALTLSGVQPEDEAEYYCALWYSNLWVFGGGTKVEIKGGGGSDKTHTCPPCPAPEFEGGPSVFLFPPKPKDTLMISRTPEVTCVVVDVSHEDPEVKFNWYVDGVEVHNAKTKPREEQYNSTYRVVSVLTVLHQDWLNGKEYKCKVSNKALPASIEKTISKAKGQPREPQVYTLPPCRDELTKNQVSLWCLVKGFYPSDIAVEWESNGQPENNYKTTPPVLDSDGSFFLYSKLTVDKSRWQQGNVFSCSVMHEALHNHYTQKSLSLSPGK
heavy: QLQLQESGPGLVKPSETLSLTCTVSGGSISSGSYFWGWIRQPPGKGLEWIGSIYYSGITYYNPSLKSRVTISVDTSKNQFSLKLSSVTAADTAVYYCARHDGAVAGLFDYWGQGTLVTVSSASTKGPSVFPLAPSSKSTSGGTAALGCLVKDYFPEPVTVSWNSGALTSGVHTFPAVLQSSGLYSLSSVVTVPSSSLGTQTYICNVNHKPSNTKVDKKVEPKSCDKTHTCPPCPAPEFEGGPSVFLFPPKPKDTLMISRTPEVTCVVVDVSHEDPEVKFNWYVDGVEVHNAKTKPREEQYNSTYRVVSVLTVLHQDWLNGKEYKCKVSNKALPASIEKTISKAKGQPREPQVCTLPPSRDELTKNQVSLSCAVKGFYPSDIAVEWESNGQPENNYKTTPPVLDSDGSFFLVSKLTVDKSRWQQGNVFSCSVMHEALHNRFTQKSLSLSPGK
light: SYVLTQPPSVSVAPGQTARITCGGNNIGSKSVHWYQQPPGQAPVVVVYDDSDRPSGIPERFSGNSNGNTATLTISRVEAGDEAVYYCQVWDSSSDHVVFGGGTKLTVLRTVAAPSVFIFPPSDEQLKSGTASVVCLLNNFYPREAKVQWKVDNALQSGNSQESVTEQDSKDSTYSLSSTLTLSKADYEKHKVYACEVTHQGLSSPVTKSFNRGEC
notes: structure 2; BCMA x CD3; CH2 FES
B2: BCMA-M2-G2 (bispecific antibody, human IgG1, kappa)
chain: QLQLQESGPGLVKPSETLSLTCTVSGGSISSGSYFWGWIRQPPGKGLEWIGSIYYSGITYYNPSLKSRVTISVDTSKNQFSLKLSSVTAADTAVYYCARHDGAVAGLFDYWGQGTLVTVSSASTKGPSVFPLAPSSKSTSGGTAALGCLVKDYFPEPVTVSWNSGALTSGVHTFPAVLQSSGLYSLSSVVTVPSSSLGTQTYICNVNHKPSNTKVDKKVEPKSCDKTHTGGGSAAAQVQLVESGGGVVQPGRSLRLSCAASGFTFSTYAMNWVRQAPGKGLEWVARIRSKYNNYATYYADSVKDRFTISRDDSKNTLYLQMNSLRAEDTAVYYCARHGNFGNSYVSWFAYWGQGTLVTVSSGGGGSGGGGSGGGGSQTVVTQEPSLTVSPGGTVTLTCRSSTGAVTTSNYANWVQQKPGQAPRGLIGGTNKRAPGVPARFSGSLLGGKAALTLSGVQPEDEAEYYCALWYSNLWVFGGGTKVEIKGGGGSDKTHTCPPCPAPPVAGPSVFLFPPKPKDTLMISRTPEVTCVVVDVSHEDPEVQFNWYVDGVEVHNAKTKPREEQFNSTFRVVSVLTVVHQDWLNGKEYKCKVSNKGLPAPIEKTISKTKGQPREPQVYTLPPCRDELTKNQVSLWCLVKGFYPSDIAVEWESNGQPENNYKTTPPVLDSDGSFFLYSKLTVDKSRWQQGNVFSCSVMHEALHNHYTQKSLSLSPGK
heavy: QLQLQESGPGLVKPSETLSLTCTVSGGSISSGSYFWGWIRQPPGKGLEWIGSIYYSGITYYNPSLKSRVTISVDTSKNQFSLKLSSVTAADTAVYYCARHDGAVAGLFDYWGQGTLVTVSSASTKGPSVFPLAPSSKSTSGGTAALGCLVKDYFPEPVTVSWNSGALTSGVHTFPAVLQSSGLYSLSSVVTVPSSSLGTQTYICNVNHKPSNTKVDKKVEPKSCDKTHTCPPCPAPPVAGPSVFLFPPKPKDTLMISRTPEVTCVVVDVSHEDPEVQFNWYVDGVEVHNAKTKPREEQFNSTFRVVSVLTVVHQDWLNGKEYKCKVSNKGLPAPIEKTISKTKGQPREPQVCTLPPSRDELTKNQVSLSCAVKGFYPSDIAVEWESNGQPENNYKTTPPVLDSDGSFFLVSKLTVDKSRWQQGNVFSCSVMHEALHNRFTQKSLSLSPGK
light: B1 light
notes: structure 2; BCMA x CD3; CH2 G2CH2
B3: BCMA-M2-AG2 (bispecific antibody, human IgG1, kappa)
chain: B2 chain with C499A
heavy: B2 heavy with C233A
light: B1 light
notes: structure 2; BCMA x CD3; CH2 AG2CH2
B4: BCMA-M2-DG2 (bispecific antibody, human IgG1, kappa)
chain: B2 chain with D534A
heavy: B2 heavy with D268A
light: B1 light
notes: structure 2; BCMA x CD3; CH2 DG2CH2
B5: BCMA-M2-G2D (bispecific antibody, human IgG1, kappa)
chain: B2 chain with D539A
heavy: B2 heavy with D273A
light: B1 light
notes: structure 2; BCMA x CD3; CH2 G2DCH2
B6: BCMA-M2-DG2D (bispecific antibody, human IgG1, kappa)
chain: B2 chain with D534A, D539A
heavy: B2 heavy with D268A, D273A
light: B1 light
notes: structure 2; BCMA x CD3; CH2 DG2DCH2
B7: BCMA-M2-PG2 (bispecific antibody, human IgG1, kappa)
chain: B2 chain with C499P
heavy: B2 heavy with C233P
light: B1 light
notes: structure 2; BCMA x CD3; CH2 PG2CH2
B8: BCMA-M2-GG2 (bispecific antibody, human IgG1, kappa)
chain: B2 chain with C499G
heavy: B2 heavy with C233G
light: B1 light
notes: structure 2; BCMA x CD3; CH2 GG2CH2
B9: BCMA-M2-SG2 (bispecific antibody, human IgG1, kappa)
chain: B2 chain with C499S
heavy: B2 heavy with C233S
light: B1 light
notes: structure 2; BCMA x CD3; CH2 SG2CH2

In one assay the target is T2, Monkey CD3 (monkey).
T2 construct: whole, on cells; also called CD3 of monkey CD3 positive T cells
The assay is described as follows: flow cytometry, monkey T cells. For orientation: In flow cytometry, cells or beads pass a laser one at a time.
On to B1, for which the EC50 (as a rule, the concentration needed to bring the measured effect to its halfway point) was 0.63 µM.
Take B2: the EC50 was 0.591 µM.
Same read-out and setting: under B3 stands 0.668 µM.
Still for that read-out and setting: the value for B4 was 0.501 µM; that for B5 was 0.51 µM; that for B6 was 0.641 µM.
Still for that read-out and setting: the value for B7 was 0.716 µM; that for B8 was 0.636 µM.
For B9, the EC50 was found to be 0.461 µM.

In a further assay the target is T3, Human CD3ε (human, UniProt P07766 23-126).
T3 construct: CD3 on T cells isolated from human whole blood
The assay is described as follows: flow cytometry, human T cells. Put shortly: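 Cell binding by flow cytometry: antigen-positive tumor cells (e.g. MM.1S or RPMI 8226 for CD38) or CD3+ T cells, 2×10⁵/well, with antibody 3-fold diluted over 11 points from 3000 nM, 2 h at 4° C with shaking.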
For the molecule B1, the EC50 was 0.532 µM.
On the same count and under the same terms, under B2 stands 0.515 µM.
On the same count and under the same terms, the value for B3 was 0.613 µM; that for B4 was 0.55 µM; that for B5 was 0.351 µM.
On the same count and under the same terms, under B6 stands 0.534 µM; under B7, 0.599 µM.
With B8, it took 0.448 µM to reach a half-maximal effect (EC50).
For B9, the EC50 amounted to 0.4 µM.

Another assay deals with T1, Human BCMA. Nature of the assay: flow cytometry, human tumor cells (BCMA+). An excerpt:
1) Cell preparation: T cells isolated from CD3-positive human whole blood were used for a CD3 end affinity detection of multifunctional antibody molecule; positive tumor cells of corresponding antigen were used for detecting affinity of tumor antigen; for example, CD38-positive MM. 1S cells (purchased from the Cell Resource Center of Shanghai Institutes for Biological Sciences, Chinese Academy of Sciences) or RPMI 8226 cells (purchased from the Cell Resource Center of Shanghai Institutes for Biological Sciences, Chinese Academy of Sciences) were used for CD38 antigen detection, and PD-L1 positive H358 cells (purchased from the Cell Resource Center of Shanghai Institutes for Biological Sciences, Chinese Academy of Sciences) were used for PD-L1 antigen detection, and so on. The cells were resuspended with 1% FBS-PBS, adjusted to a density of 4×10⁶/ml, and 50 μl of cells were taken from each well, and then plated at 2×10⁵ per well. Cell plating was operated on ice
2) Addition of the antibody: according to the experimental design, the antibody was diluted gradually, and dilution of antibody was operated on ice. For example, the initial concentration of antibody for dilution was 3000 nM, and the antibody was diluted by 3 times with 11 concentration gradients. The diluted antibody was added to a cell well at 50 μl per well, mixed well, and shaked and incubated at 4° C. 1100 rpm/min for 2 h; after washing, the cells were resuspend in 1% FBS-PBS, and a diluted secondary antibody PE anti-human IgG FC (Biolegend, 409304) was added with a final concentration of 8 ug/ml and a volume of 50 μl/well. At the same time, a well only added with cells and secondary antibody was set as a control, the components were mixed well, and incubated under shaking at 1100 rpm/min at 4° C. for 1 h;
5) Data analysis: the data was analyzed by a flow analysis software FlowJo 7.6 thereby obtaining an average fluorescence intensity of the specific antibody concentration, plotted by a Graphpad Prism 5 with the antibody concentration (nM) as an abscissa and the average fluorescence intensity as an ordinate; the EC50 value was calculated by the method of One site—Specific binding, and the EC50 value indicated the cell affinity of the antibody to the corresponding target antigen.
B1 showed an EC50 of 0.0153 µM.
Same read-out and setting: the value for B2 was 0.0191 µM.
Same read-out and setting: under B3 stands 0.0238 µM; under B4, 0.0174 µM; under B5, 0.0192 µM.
Take B6: the response was half-maximal at 0.0188 µM (EC50).
On the same count and under the same terms, the value for B7 was 0.024 µM; that for B8 was 0.0236 µM; that for B9 was 0.017 µM.
